Target: streptavidin (coated on iron oxide particles or on fluorescently-labeled polystyrene particles), P22629
Assay: cell-based or functional assay

streptavidin (coated on iron oxide particles or on fluorescently-labeled polystyrene particles), P22629, sequence (P22629 37-163 limits assumed): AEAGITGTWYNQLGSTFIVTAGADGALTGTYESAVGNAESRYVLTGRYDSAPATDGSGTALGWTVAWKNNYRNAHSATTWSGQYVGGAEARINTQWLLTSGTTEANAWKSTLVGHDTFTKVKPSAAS

B1: peptide HC260 (peptide)
peptide: MASGSDPSAQSQLPDKHSGLHERAPQRYGPEPEPEPEPIPEPPKEAPVVIEKPKPKPKPKPKPPAHDHKNQKETHQRHAAGSGGGGSPMLSENWLTNHPQNGGAGGAGMLSENWLTNHPQNGK
modifications: not checked
Color scale (0-5); sequential coloring of hair with streptavidin-coated iron oxide beads (color scale 0-5): 2
